Our source for the TMT signal-to-noise ratio values is patent US20210063414A1, “METHODS FOR PREVENTING AND/OR TREATING BONE LOSS CONDITIONS BY MODULATING IRISIN” (Dana-Farber Cancer Institute, Inc., priority 2018, published 2021).

Common to all, as to experiment: Crosslinking/co-immunoprecipitation/mass spectrometry (TMT quantitative proteomics) to identify irisin receptors
Common to all, as to assay type: binding

Test [1] has as its target T1, MLO-Y4 cell surface proteins (Mus musculus, UniProt Q99KR7).
T1 construct: endogenous in cells; host or cells: MLO-Y4
As to conditions: co-precipitated protein Ppif (PPIF_MOUSE). The method, boiled down:
(§1)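 Relative protein abundance came from 6-plex TMT MS3 quantitation on an Orbitrap Fusion Lumos, after in-gel trypsin digestion of Coomassie-stained SDS-PAGE lanes. Input was a Ni-NTA pulldown (250 mM imidazole elution) of lysates from murine MLO-Y4 cells. These cells were treated on ice with His-tagged irisin or adipsin (10 nM, 20 min) in serum-free medium, then crosslinked with 1.5 mM DTSSP for 30 min.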

In test [2] the target is T2, MLO-Y4 cell surface proteins (Mus musculus, UniProt Q9JHS4).
T2 construct: endogenous in cells; host or cells: MLO-Y4
As to conditions: co-precipitated protein Clpx (CLPX_MOUSE). The gist of the method: as §1

Test [3] concerns the target T3, MLO-Y4 cell surface proteins (Mus musculus, UniProt P60843).
T3 construct: endogenous in cells; host or cells: MLO-Y4
To be noted: co-precipitated protein Eif4a1 (IF4A1_MOUSE). The method, boiled down: as §1

Test [4] addresses T4, MLO-Y4 cell surface proteins (Mus musculus, UniProt P52825).
T4 construct: endogenous in cells; host or cells: MLO-Y4
T4 sequence (P52825 26-658): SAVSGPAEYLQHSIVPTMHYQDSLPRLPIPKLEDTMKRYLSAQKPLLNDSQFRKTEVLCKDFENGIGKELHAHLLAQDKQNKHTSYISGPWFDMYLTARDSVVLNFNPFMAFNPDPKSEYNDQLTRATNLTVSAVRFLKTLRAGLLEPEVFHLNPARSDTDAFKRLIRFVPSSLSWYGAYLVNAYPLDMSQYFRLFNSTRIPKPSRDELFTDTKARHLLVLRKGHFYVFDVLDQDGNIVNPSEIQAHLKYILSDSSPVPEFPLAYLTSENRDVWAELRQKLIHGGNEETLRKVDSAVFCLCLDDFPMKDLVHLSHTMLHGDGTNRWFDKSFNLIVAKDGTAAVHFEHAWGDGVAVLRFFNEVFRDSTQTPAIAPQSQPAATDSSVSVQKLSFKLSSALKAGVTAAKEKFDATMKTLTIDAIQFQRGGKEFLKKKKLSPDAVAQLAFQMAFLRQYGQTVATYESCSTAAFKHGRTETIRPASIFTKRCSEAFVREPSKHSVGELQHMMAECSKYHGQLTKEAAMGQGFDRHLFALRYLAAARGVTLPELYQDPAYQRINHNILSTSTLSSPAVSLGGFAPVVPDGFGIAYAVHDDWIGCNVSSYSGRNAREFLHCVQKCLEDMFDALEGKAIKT
To be noted: co-precipitated protein Cpt2 (CPT2_MOUSE). The method, boiled down: as §1

The target in test [5] is T5, MLO-Y4 cell surface proteins (Mus musculus, UniProt E9Q0C6).
T5 construct: endogenous in cells; host or cells: MLO-Y4
To be noted: co-precipitated protein Gm14569 (E9Q0C6_MOUSE). The method, boiled down:
as §1

Test [6] deals with T6, MLO-Y4 cell surface proteins (Mus musculus, UniProt Q66GT5).
T6 construct: endogenous in cells; host or cells: MLO-Y4
T6 sequence (Q66GT5 32-193): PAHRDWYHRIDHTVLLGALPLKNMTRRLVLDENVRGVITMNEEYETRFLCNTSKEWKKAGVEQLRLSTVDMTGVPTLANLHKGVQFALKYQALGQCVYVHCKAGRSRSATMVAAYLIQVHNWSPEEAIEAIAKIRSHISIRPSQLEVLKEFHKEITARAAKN
To be noted: co-precipitated protein Ptpmt1 (PTPM1_MOUSE). The gist of the method:
as §1

The target in test [7] is T7, MLO-Y4 cell surface proteins (Mus musculus, UniProt P62737).
T7 construct: endogenous in cells; host or cells: MLO-Y4
As to conditions: co-precipitated protein Acta2 (ACTA_MOUSE). The gist of the method:
as §1

T1 sequence (Q99KR7 30-206): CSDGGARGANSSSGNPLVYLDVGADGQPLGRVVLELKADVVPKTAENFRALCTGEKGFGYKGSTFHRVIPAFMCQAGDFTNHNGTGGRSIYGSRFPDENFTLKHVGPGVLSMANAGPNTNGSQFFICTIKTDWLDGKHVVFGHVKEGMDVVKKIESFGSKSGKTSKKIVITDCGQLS
T2 sequence (Q9JHS4 57-634): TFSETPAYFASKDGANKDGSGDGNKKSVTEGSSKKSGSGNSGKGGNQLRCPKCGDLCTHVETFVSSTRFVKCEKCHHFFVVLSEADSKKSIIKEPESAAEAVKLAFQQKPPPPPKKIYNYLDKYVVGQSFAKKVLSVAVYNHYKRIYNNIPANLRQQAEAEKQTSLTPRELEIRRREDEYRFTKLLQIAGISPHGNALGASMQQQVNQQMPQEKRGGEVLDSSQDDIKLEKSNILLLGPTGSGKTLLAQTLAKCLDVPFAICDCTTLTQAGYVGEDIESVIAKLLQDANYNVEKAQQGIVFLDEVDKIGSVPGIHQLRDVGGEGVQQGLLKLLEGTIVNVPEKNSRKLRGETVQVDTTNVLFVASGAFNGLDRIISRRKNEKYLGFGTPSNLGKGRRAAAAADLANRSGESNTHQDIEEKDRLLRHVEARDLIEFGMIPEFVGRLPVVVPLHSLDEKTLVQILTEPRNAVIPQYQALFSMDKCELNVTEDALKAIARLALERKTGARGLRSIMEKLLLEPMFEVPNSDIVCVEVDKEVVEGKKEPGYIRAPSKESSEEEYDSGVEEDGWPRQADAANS
T3 sequence (P60843 whole entry): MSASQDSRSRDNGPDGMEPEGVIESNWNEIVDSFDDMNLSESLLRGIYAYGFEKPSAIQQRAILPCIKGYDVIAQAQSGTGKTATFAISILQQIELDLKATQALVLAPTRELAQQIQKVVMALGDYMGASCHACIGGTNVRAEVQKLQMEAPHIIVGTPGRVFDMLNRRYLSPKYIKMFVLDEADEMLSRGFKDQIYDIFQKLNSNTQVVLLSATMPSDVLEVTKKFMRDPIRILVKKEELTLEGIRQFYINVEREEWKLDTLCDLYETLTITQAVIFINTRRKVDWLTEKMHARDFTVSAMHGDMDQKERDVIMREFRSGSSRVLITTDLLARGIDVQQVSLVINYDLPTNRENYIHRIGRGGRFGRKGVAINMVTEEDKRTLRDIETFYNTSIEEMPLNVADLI
T5 sequence (E9Q0C6 whole entry): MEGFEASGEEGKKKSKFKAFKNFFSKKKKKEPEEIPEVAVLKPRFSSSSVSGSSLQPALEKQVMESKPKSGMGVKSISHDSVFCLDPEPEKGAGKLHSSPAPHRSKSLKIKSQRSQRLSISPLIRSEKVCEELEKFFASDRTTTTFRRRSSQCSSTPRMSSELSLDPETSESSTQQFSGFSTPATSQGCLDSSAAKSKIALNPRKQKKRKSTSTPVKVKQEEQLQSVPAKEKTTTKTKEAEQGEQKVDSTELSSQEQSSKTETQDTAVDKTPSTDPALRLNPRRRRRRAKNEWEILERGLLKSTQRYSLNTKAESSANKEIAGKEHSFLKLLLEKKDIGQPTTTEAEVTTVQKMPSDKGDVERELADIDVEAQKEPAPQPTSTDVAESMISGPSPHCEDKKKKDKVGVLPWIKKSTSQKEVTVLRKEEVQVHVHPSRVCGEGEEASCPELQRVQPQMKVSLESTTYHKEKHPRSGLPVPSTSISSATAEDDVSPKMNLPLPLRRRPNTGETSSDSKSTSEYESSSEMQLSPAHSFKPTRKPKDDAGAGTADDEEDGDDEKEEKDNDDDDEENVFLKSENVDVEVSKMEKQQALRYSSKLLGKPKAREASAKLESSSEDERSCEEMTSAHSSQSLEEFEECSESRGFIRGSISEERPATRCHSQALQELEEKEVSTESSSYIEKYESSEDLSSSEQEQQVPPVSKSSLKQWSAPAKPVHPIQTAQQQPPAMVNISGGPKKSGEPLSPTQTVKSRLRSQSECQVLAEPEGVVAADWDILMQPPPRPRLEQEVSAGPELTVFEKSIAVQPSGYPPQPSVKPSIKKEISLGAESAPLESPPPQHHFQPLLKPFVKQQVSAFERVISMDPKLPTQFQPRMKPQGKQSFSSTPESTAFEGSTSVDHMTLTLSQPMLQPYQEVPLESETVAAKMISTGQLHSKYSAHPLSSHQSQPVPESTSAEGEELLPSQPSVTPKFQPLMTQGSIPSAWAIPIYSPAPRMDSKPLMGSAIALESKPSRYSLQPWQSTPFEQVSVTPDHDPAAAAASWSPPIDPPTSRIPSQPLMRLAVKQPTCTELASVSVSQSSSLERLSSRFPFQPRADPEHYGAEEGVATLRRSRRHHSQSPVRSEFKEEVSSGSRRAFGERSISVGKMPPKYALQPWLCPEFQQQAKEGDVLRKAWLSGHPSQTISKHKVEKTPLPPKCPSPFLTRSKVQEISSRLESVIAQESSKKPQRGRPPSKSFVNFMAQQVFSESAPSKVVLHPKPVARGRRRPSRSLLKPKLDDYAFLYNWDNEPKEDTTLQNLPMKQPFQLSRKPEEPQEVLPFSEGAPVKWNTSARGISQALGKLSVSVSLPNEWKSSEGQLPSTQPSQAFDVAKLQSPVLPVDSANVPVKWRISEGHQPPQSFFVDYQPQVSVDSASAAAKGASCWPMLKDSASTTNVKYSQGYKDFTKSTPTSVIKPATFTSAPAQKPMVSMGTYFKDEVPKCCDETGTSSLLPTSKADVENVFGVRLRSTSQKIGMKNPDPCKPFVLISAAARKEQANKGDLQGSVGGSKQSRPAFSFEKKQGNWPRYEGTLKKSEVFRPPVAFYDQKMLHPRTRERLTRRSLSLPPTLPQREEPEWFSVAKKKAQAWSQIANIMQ

Take adipsin: the TMT signal-to-noise ratio is 249.839 in test [1]; 1517.78 in test [2]; 136.49 in test [3]; 177.54 in test [4]; 224.172 in test [5]; 92.3664 in test [6]. The TMT signal-to-noise ratio in test [7] is given as 361.157.
